Reference: paper PMC4872217, “Structural and functional insights into the E3 ligase, RNF126” (Scientific Reports, 2016)

B1: RNF126_NZF (RNF126 N-terminal zinc finger domain, residues 1-40) (domain or fragment, human, UniProt Q9BV68 1-40, looked up)
chain: MAEASPHPGRYFCHCCSVEIVPRLPDYICPRCESGFIEEL
notes: RNF126, human, residues 1-40 (N-terminal zinc finger); 15N- or 15N,13C-labelled where it was the observed protein in NMR; Cultures were supplemented with 10 uM ZnCl2; also called RNF126 1-40; not shown: thioredoxin A, N-terminal, cleaved; His6, N-terminal, cleaved
B2: BAG6_UBL (UBL domain of BAG6, residues 17-101) (domain or fragment, UniProt P46379 17-101, looked up)
chain: LEVLVKTLDSQTRTFIVGAQMNVKEFKEHIAASVSIPSEKQRLIYQGRVLQDDKKLQEYNVGGKVIHLVERAPPQTHLPSGASSG
notes: BAG6 (BCL2-associated athanogene 6), UBL domain, residues 17-101; The general purification protocol describes TEV cleavage; also called BAG6 UBL domain; source: E. coli BL21 (DE3), purified

Tests used:
[1] = target: UBL4A_UBL (UBL domain of UBL4A, residues 1-74) (UniProt P11441); test: NMR titration; unlabelled protein titrated into 15N-labelled protein, 1H-15N HSQC chemical shift perturbation; 25 °C; 10 mM potassium phosphate pH 6.0, 100 mM NaCl, 250 μM TCEP; for RNF126_NZF into UBL4A_UBL fitted with DynaFit to a 1:1 model
[2] = target: B2; test: ITC; 500 μM RNF126_NZF (wild-type or mutant) injected into 50 μM BAG6_UBL in the cell; 25 °C; 10 mM potassium phosphate pH 6.0, 100 mM NaCl, 250 μM TCEP; settings: both partners purified
[3] = target: T1, SGTA_NT (N-terminal SGTA, residues 1-86) (human, UniProt O43765 1-86); test: NMR titration; unlabelled protein titrated into 15N-labelled protein, 1H-15N HSQC chemical shift perturbation; 25 °C; 10 mM potassium phosphate pH 6.0, 100 mM NaCl, 250 μM TCEP; for RNF126_NZF into UBL4A_UBL fitted with DynaFit to a 1:1 model; settings: both partners purified
T1 construct: SGTA (small glutamine-rich tetratricopeptide repeat-containing protein alpha), human, residues 1-86; Only the 1-86 construct is described in the methods; not shown: thioredoxin A, N-terminal, cleaved; His6, N-terminal, cleaved
T1 sequence (O43765 1-86): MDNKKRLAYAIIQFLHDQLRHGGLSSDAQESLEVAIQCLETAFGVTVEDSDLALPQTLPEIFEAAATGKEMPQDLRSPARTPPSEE

[4] = target: T2, RNF126 N-terminal region (residues 1-100) (human, UniProt Q9BV68 1-100); test: as above; settings: both partners purified
T2 construct: RNF126, human, residues 1-100; also called RNF126 1-100; RNF126_NT (1-100); not shown: thioredoxin A, N-terminal, cleaved; His6, N-terminal, cleaved

[5] = target: B1; test: as above; settings: both partners purified

Row | Binder | Kd [2] [µM] | binding result [4] | also measured
1 | B1 | 0.4 ± 0.05 |  | Kd [1]: 16.6 µM; dH [2]: -4.52 ± 0.04 kcal/mol; stoichiometry N [2]: 1
2 | MAEASPHPGRYFCACCSVEIVPRLPDYICPRCESGFIEEL (domain or fragment, human, UniProt Q9BV68 1-40, looked up, RNF126, human, residues 1-40, with H14A; Made by PCR mutagenesis on pET28-GFP-RNF126 (1-40); in the native PAGE the mutants were GFP tagged; also called His14/Ala; source: E. coli BL21 (DE3), purified) [RNF126_NZF H14A mutant] | > 50 |  | 
3 | MAEASPHPGRYFCHCCSVEIVPRLPDYICPRCESGAIEEL (domain or fragment, human, UniProt Q9BV68 1-40, looked up, RNF126, human, residues 1-40, with F36A; Made by PCR mutagenesis on pET28-GFP-RNF126 (1-40); in the native PAGE the mutants were GFP tagged; also called Phe36/Ala; source: E. coli BL21 (DE3), purified) [RNF126_NZF F36A mutant] | 5 ± 0.3 |  | 
4 | B2 |  | binds | binding result [3]: binds; stoichiometry N [5]: ~1 molar ratio
5 | UBL4A_UBL (UBL domain of UBL4A, residues 1-74) (domain or fragment, UniProt P11441 1-74, looked up, UBL4A (ubiquitin-like protein 4A), UBL domain, residues 1-74; source: E. coli Rosetta, purified) MQLTVKALQGRECSLQVPEDELVSTLKQLVSEKLNVPVRQQRLLFKGKALADGKRLSDYSIGPNSKLNLVVKPL |  | binds | 
